In US10041047B2, “Compositions and methods for epithelial stem cell expansion and culture” (The Brigham and Women's Hospital, Inc., priority 2013, dated 2018):

Key:
[1] = system: Lgr5+ stem cells in small intestinal crypts; experiment: Small intestinal crypt culture from Lgr5-GFP mice in Matrigel: cell proliferation and Lgr5-GFP expression; format: cell-based, mouse; conditions: for requirement of growth factor to maintain self-renewal of Lgr5+ stem cells: crypts 6 days in the CV condition (CHIR 3 μM, VPA 1 mM)
Description: Crypts and single Lgr5-GFP cells were isolated as previously described (Sato et al., 2009). Briefly, the proximal half of the small intestine was harvested, opened longitudinally, and washed with cold PBS to remove luminal content. The tissue was then cut into 2-4 mm pieces with scissors and further washed 5-10 times with cold PBS by pipetting up and down using a 10-ml pipette. Tissue fragments were incubated with 2 mM EDTA in PBS for 30 min on ice. After removal of EDTA, tissue fragments were washed with PBS to release crypts. Supernatant fractions enriched in crypts were collected, passed through a 70 μm cell strainer and centrifuged at 300 g for 5 minutes. The cell pellet was re-suspended with cell culture media without growth factors and centrifuged at 150 g to remove single cells. Crypts were then cultured or used for single cell isolation. To obtain single cells, crypts were incubated in culture medium for 45 minutes at 37° C. and triturated with a glass pipette. Dissociated cells were passed through 20 μm cell strainer, negative stained with propidium iodide and single viable GFP-high cells were sorted by flow cytometry (FACS Aria, BD) as previously described (Sato et al., 2009). Small intestinal crypts isolated from Lgr5-EGFP-ires-CreERT2 mice were embedded in Matrigel and cultured under conventional culture conditions in the presence of EGF, Noggin and R-spondin 1 (collectively referred to as ENR) leading to organoids with crypts and villus-like domains and GFP^+ cells at the crypt tips, consistent with previous reports (Sato et al., 2009). Isolated crypts or single cells were cultured as previously described (Sato et al., 2009) with minimal modification. Briefly, crypts or single cells were entrapped in Matrigel and plated at the center of wells in a 24-well plate. After polymerization of Matrigel (growth factor reduced; BD Bioscience), 500 μl of culture medium (Advanced DMEM/F12 (Life Technologies)) was added containing growth factors including EGF (50 ng/ml, Life Technologies), Noggin (100 ng/ml, Peprotech) and R-spondin 1 (500 ng/ml, R&D) and small molecules including CHIR99021 (3 μM, Stemgent) and Valproic Acid (1 mM, Sigma-Aldrich). For comparison of different culture conditions, small molecules or growth factors were added to freshly isolated crypts immediately after plating in Matrigel to test the ability to minimize potential differentiation of the ISC within the crypts and thus sustain crypt cultures. Cell culture media was changed every other day. For single cell culture, cells were embedded in Matrigel containing Jagged-1 peptide (1 μM; AnaSpec) and Y-27632 (10 μM; Tocris) was added for the first 2 days. Cells were passaged either as cell colonies as previously described (Sato et al., 2009) or as single cells. […]

[2] = system: Lgr5+ stem/progenitor cells derived from the mouse inner ear; experiment: Culture of inner ear (cochlear) Lgr5-GFP epithelial cells in Matrigel; format: cell-based; conditions: 8 day cultures; added to EGF+CV or to the EGF+bFGF combination (FIG. 14D, 14E)
Description: The same culture condition (EGF, Noggin, R-spondin1, or “ENR”) as used in Lgr5+ small intestinal stem cell cultures was first established.
Isolated organ of Corti from Lgr5-GFP mice were dissociated into single cells using accutase and cultured in multiple combinations of soluble factors and small molecules in Matrigel for 8 days. The resulting cultures were further dissociated into single cells and analyzed using FACS. […] In addition, the combination of EGF, bFGF and IGF-1 (designated as EFI) improved cell proliferation and GFP expression compared with the ENR condition (FIG. 14A-14C).
To further investigate the effects of individual growth factors when combined with CHIR and VPA, growth factors including Mitogenic growth factors (EGF, bFGF and IGF-1) as well as the Wnt agonist R-spondin 1 in combination with CHIR and VPA were tested.

B1: Wnt3a: Wnt pathway activator protein (protein, UniProt P56704 19-352, looked up)
Protein Wnt-3a: SYPIWWSLAVGPQYSSLGSQPILCASIPGLVPKQLRFCRNYVEIMPSVAEGIKIGIQECQHQFRGRRWNCTTVHDSLAIFGPVLDKATRESAFVHAIASAGVAFAVTRSCAEGTAAICGCSSRHQGSPGKGWKWGGCSEDIEFGGMVSREFADARENRPDARSAMNRHNNEAGRQAIASHMHLKCKCHGLSGSCEVKTCWWSQPDFRAIGDFLKDKYDSASEMVVEKHRESRGWVETLRPRYTYFKVPTERDLVYYEASPNFCEPNPETGSFGTRDRTCNVSSHGIDGCDLLCCGRGHNARAERRREKCRCVFHWCCYVSCQECTRVYDVHTCK
- cell proliferation of crypt cells (organoid size and cell numbers) ([1]; crypts cultured 6 days, agent added to ENR condition, compared to ENR): increased crypt proliferation

B2: Noggin: inhibitor of Bone Morphogenic Proteins (protein, UniProt Q13253 28-232, looked up)
Noggin: QHYLHIRPAPSDNLPLVDLIEHPDPIFDPKEKDLNETLLRSLLGGHYDPGFMATSPPEDRPGGGGGAAGGAEDLAELDQLLRQRPSGAMPSEIKGLEFSEGLAQGKKQRLSKKLRRKLQMWLWSQTFCPVLYAWNDLGSRFWPRYVKVGSCFSKRSCSVPEGMVCKPSKSVHLTVLRWRCQRRGGQRCGWIPIQYPIISECKCSC
- requirement of growth factor to maintain self-renewal of Lgr5+ stem cells [1]: still required

B3: R-spondin 1: agent that binds to the LGR5 receptor, Wnt agonist (protein, UniProt Q2MKA7 21-263, looked up)
R-spondin-1: SRGIKGKRQRRISAEGSQACAKGCELCSEVNGCLKCSPKLFILLERNDIRQVGVCLPSCPPGYFDARNPDMNKCIKCKIEHCEACFSHNFCTKCKEGLYLHKGRCYPACPEGSSAANGTMECSSPAQCEMSEWSPWGPCSKKQQLCGFRRGSEERTRRVLHAPVGDHAACSDTKETRRCTVRRVPCPEGQKRRKGGQGRRENANRNLARKESKEAGAGSRRRKGQQQQQQQGTVGPLTSAGPA
- requirement of growth factor to maintain self-renewal of Lgr5+ stem cells [1]: still required
- GFP expression on addition of a growth factor [2]: slightly increased

B4: R-Spondin 2: agent that binds to the LGR5 receptor (protein, UniProt Q6UXX9 22-243, looked up)
R-spondin-2: QGNRWRRSKRASYVSNPICKGCLSCSKDNGCSRCQQKLFFFLRREGMRQYGECLHSCPSGYYGHRAPDMNRCARCRIENCDSCFSKDFCTKCKVGFYLHRGRCFDECPDGFAPLEETMECVEGCEVGHWSEWGTCSRNNRTCGFKWGLETRTRQIVKKPVKDTILCPTIAESRRCKMTMRHCPGGKRTPKAKEKRNKKKKRKLIERAQEQHSVFLATDRANQ
- organoid formation (number of organoids formed at day 5) ([1]; ENR condition, R-spondin 2 compared to R-spondin 1 at multiple concentrations): better efficacy at lower concentrations
